In patent US9580731B2, “Methods of producing 7-carbon chemicals via c1 carbon chain elongation associated with coenzyme B synthesis” (INVISTA North America S.á r.l., priority 2012, dated 2017):
One block for each molecule: values may come before it.

Columns and labels:
Format in all cases: biochemical
[1] = ω-transaminase activity assay, 7-aminoheptanol to 7-oxoheptanol; details: for ω-transaminase activity for converting 7-aminoheptanol to 7-oxoheptanol (pyruvate to L-alanine): cell free extract, 10 mM 7-aminoheptanol, 10 mM pyruvate, 25° C., 4 h, against empty vector control, FIG. 19; for ω-transaminase acceptance of 7-oxoheptanol, forming 7-aminoheptanol: concluded from reversibility of the ω-transaminase activity (Example 2)
Description: A nucleotide sequence encoding an N-terminal His-tag was added to the Chromobacterium violaceum, Pseudomonas syringae and Rhodobacter sphaeroides genes encoding the ω-transaminases of SEQ ID NOs: 8, 10 and 11, respectively (see FIG. 7) such that N-terminal HIS tagged ω-transaminases could be produced. The modified genes were cloned into a pET21a expression vector under the T7 promoter. Each expression vector was transformed into a BL21[DE3] E. coli host. Each resulting recombinant E. coli strain were cultivated at 37° C. in a 250 mL shake flask culture containing 50 mL LB media and antibiotic selection pressure, with shaking at 230 rpm. Each culture was induced overnight at 16° C. using 1 mM IPTG.
(§1) The pellet from each induced shake flask culture was harvested via centrifugation. Each pellet was resuspended and lysed via sonication. The cell debris was separated from the supernatant via centrifugation and the cell free extract was used immediately in enzyme activity assays.
(§2) Enzyme activity assays in the reverse direction (i.e., 7-aminoheptanol to 7-oxoheptanol) were performed in a buffer composed of a final concentration of 50 mM HEPES buffer (pH=7.5), 10 mM 7-aminoheptanol, 10 mM pyruvate, and 100 μM pyridoxyl 5′ phosphate. Each enzyme activity assay reaction was initiated by adding cell free extract of the ω-transaminase gene product or the empty vector control to the assay buffer containing the 7-aminoheptanol and then incubated at 25° C. for 4 h, with shaking at 250 rpm. The formation of L-alanine was quantified via RP-HPLC.

[2] = ω-transaminase activity assay, reverse direction, 7-aminoheptanoate to pimelate semialdehyde; details: cell free extract, 10 mM 7-aminoheptanoate, 10 mM pyruvate, 25° C., 4 h, against empty vector control, FIG. 15
Description: (§3) A sequence encoding an N-terminal His-tag was added to the genes from Chromobacterium violaceum, Pseudomonas syringae, Rhodobacter sphaeroides, and Vibrio Fluvialis encoding the ω-transaminases of SEQ ID NOs: 8, 10, 11 and 13, respectively (see FIG. 7) such that N-terminal HIS tagged ω-transaminases could be produced. Each of the resulting modified genes was cloned into a pET21a expression vector under control of the T7 promoter and each expression vector was transformed into a BL21[DE3] E. coli host. The resulting recombinant E. coli strains were cultivated at 37° C. in a 250 mL shake flask culture containing 50 mL LB media and antibiotic selection pressure, with shaking at 230 rpm. Each culture was induced overnight at 16° C. using 1 mM IPTG.
as §1
as §2, with “7-aminoheptanoate” for “7-aminoheptanol”, “pimelate semialdehyde)” for “7-oxoheptanol)”, “7-aminoheptanoate,” for “7-aminoheptanol,”, “pyruvate” for “pyruvate,”, “and” for “and then”, “L-alanine from pyruvate” for “L-alanine”

[3] = ω-transaminase activity assay, forward direction, pimelate semialdehyde to 7-aminoheptanoate; details: for ω-transaminase activity for converting pimelate semialdehyde to 7-aminoheptanoate (L-alanine to pyruvate): cell free extract, 10 mM pimelate semialdehyde, 10 mM L-alanine, 25° C., 4 h, against empty vector control, FIG. 16; for reversibility of the ω-transaminase activity: pimelate semialdehyde accepted, 7-aminoheptanoate synthesized: conclusion from forward and reverse assays of Example 2
Description: as §3, §1
Enzyme activity in the forward direction (i.e., pimelate semialdehyde to 7-aminoheptanoate) was confirmed for the transaminases of SEQ ID NO 10, SEQ ID NO 11 and SEQ ID NO 13. Enzyme activity assays were performed in a buffer composed of a final concentration of 50 mM HEPES buffer (pH=7.5), 10 mM pimelate semialdehyde, 10 mM L-alanine and 100 μM pyridoxyl 5′ phosphate. Each enzyme activity assay reaction was initiated by adding a cell free extract of the ω-transaminase gene product or the empty vector control to the assay buffer containing the pimelate semialdehyde and incubated at 25° C. for 4 h, with shaking at 250 rpm. The formation of pyruvate was quantified via RP-HPLC.

[4] = Carboxylate reductase activity assay, N7-acetyl-7-aminoheptanoate to N7-acetyl-7-aminoheptanal (NADPH consumption); details: 2 mM N7-acetyl-7-aminoheptanoate, enhanced by gene product of sfp, room temperature, 20 min, against empty vector control, FIG. 12
Description: The activity of each of the N-terminal His-tagged carboxylate reductases of SEQ ID NOs: 3, 6, and 7 (see Examples 4, and FIG. 7) for converting N7-acetyl-7-aminoheptanoate to N7-acetyl-7-aminoheptanal was assayed in triplicate in a buffer composed of a final concentration of 50 mM HEPES buffer (pH=7.5), 2 mM N7-acetyl-7-aminoheptanoate, 10 mM MgCl2, 1 mM ATP, and 1 mM NADPH. The assays were initiated by adding purified carboxylate reductase and phosphopantetheine transferase or the empty vector control to the assay buffer containing the N7-acetyl-7-aminoheptanoate then incubated at room temperature for 20 min. The consumption of NADPH was monitored by absorbance at 340 nm.

Molecule: SEQ ID NO 11: Rhodobacter sphaeroides ω-transaminase, Genbank Accession No. ABA81135.1
ω-transaminase activity for converting 7-aminoheptanol to 7-oxoheptanol (pyruvate to L-alanine) [1]: accepted 7-aminoheptanol as substrate | ω-transaminase acceptance of 7-oxoheptanol, forming 7-aminoheptanol [1]: accept 7-oxoheptanol as substrate | ω-transaminase activity for converting 7-aminoheptanoate to pimelate semialdehyde (pyruvate to L-alanine) [2]: accepted 7-aminoheptanote as substrate | ω-transaminase activity for converting pimelate semialdehyde to 7-aminoheptanoate (L-alanine to pyruvate) [3]: accepted pimelate semialdehyde as substrate | reversibility of the ω-transaminase activity: pimelate semialdehyde accepted, 7-aminoheptanoate synthesized [3]: accepted pimelate semialdehyde as substrate and synthesized 7-aminoheptanoate

B1: SEQ ID NO 3: Mycobacterium smegmatis carboxylate reductase, Genbank Accession No. ABK71854.1 (protein, listed as Mycobacterium smegmatis)
chain: MTSDVHDATDGVTETALDDEQSTRRIAELYATDPEFAAAAPLPAVVDAAHKPGLRLAEILQTLFTGYGDRPALGYRARELATDEGGRTVTRLLPRFDTLTYAQVWSRVQAVAAALRHNFAQPIYPGDAVATIGFASPDYLTLDLVCAYLGLVSVPLQHNAPVSRLAPILAEVEPRILTVSAEYLDLAVESVRDVNSVSQLVVFDHHPEVDDHRDALARAREQLAGKGIAVTTLDAIADEGAGLPAEPIYTADHDQRLAMILYTSGSTGAPKGAMYTEAMVARLWTMSFITGDPTPVINVNFMPLNHLGGRIPISTAVQNGGTSYFVPESDMSTLFEDLALVRPTELGLVPRVADMLYQHHLATVDRLVTQGADELTAEKQAGAELREQVLGGRVITGFVSTAPLAAEMRAFLDITLGAHIVDGYGLTETGAVTRDGVIVRPPVIDYKLIDVPELGYFSTDKPYPRGELLVRSQTLTPGYYKRPEVTASVFDRDGYYHTGDVMAETAPDHLVYVDRRNNVLKLAQGEFVAVANLEAVFSGAALVRQIFVYGNSERSFLLAVVVPTPEALEQYDPAALKAALADSLQRTARDAELQSYEVPADFIVETEPFSAANGLLSGVGKLLRPNLKDRYGQRLEQMYADIAATQANQLRELRRAAATQPVIDTLTQAAATILGTGSEVASDAHFTDLGGDSLSALTLSNLLSDFFGFEVPVGTIVNPATNLAQLAQHIEAQRTAGDRRPSFTTVHGADATEIRASELTLDKFIDAETLRAAPGLPKVTTEPRTVLLSGANGWLGRFLTLQWLERLAPVGGTLITIVRGRDDAAARARLTQAYDTDPELSRRFAELADRHLRVVAGDIGDPNLGLTPEIWHRLAAEVDLVVHPAALVNHVLPYRQLFGPNVVGTAEVIKLALTERIKPVTYLSTVSVAMGIPDFEEDGDIRTVSPVRPLDGGYANGYGNSKWAGEVLLREAHDLCGLPVATFRSDMILAHPRYRGQVNVPDMFTRLLLSLLITGVAPRSFYIGDGERPRAHYPGLTVDFVAEAVTTLGAQQREGYVSYDVMNPHDDGISLDVFVDWLIRAGHPIDRVDDYDDWVRRFETALTALPEKRRAQTVLPLLHAFRAPQAPLRGAPEPTEVFHAAVRTAKVGPGDIPHLDEALIDKYIRDLREFGLI
carboxylate reductase activity for converting N7-acetyl-7-aminoheptanoate to N7-acetyl-7-aminoheptanal (NADPH consumption, absorbance at 340 nm) [4]: accepted N7-acetyl-7-aminoheptanoate as substrate

B4: SEQ ID NO 13: Vibrio fluvialis ω-transaminase, Genbank Accession No. AEA39183.1 (protein, listed as Vibrio fluvialis)
chain: MNKPQSWEARAETYSLYGFTDMPSLHQRGTVVVTHGEGPYIVDVNGRRYLDANSGLWNMVAGFDHKGLIDAAKAQYERFPGYHAFFGRMSDQTVMLSEKLVEVSPFDSGRVFYTNSGSEANDTMVKMLWFLHAAEGKPQKRKILTRWNAYHGVTAVSASMTGKPYNSVFGLPLPGFVHLTCPHYWRYGEEGETEEQFVARLARELEETIQREGADTIAGFFAEPVMGAGGVIPPAKGYFQAILPILRKYDIPVISDEVICGFGRTGNTWGCVTYDFTPDAIISSKNLTAGFFPMGAVILGPELSKRLETAIEAIEEFPHGFTASGHPVGCAIALKAIDVVMNEGLAENVRRLAPRFEERLKHIAERPNIGEYRGIGFMWALEAVKDKASKTPFDGNLSVSERIANTCTDLGLICRPLGQSVVLCPPFILTEAQMDEMFDKLEKALDKVFAEVA
ω-transaminase activity for converting 7-aminoheptanoate to pimelate semialdehyde (pyruvate to L-alanine) [2]: accepted 7-aminoheptanote as substrate | ω-transaminase activity for converting pimelate semialdehyde to 7-aminoheptanoate (L-alanine to pyruvate) [3]: accepted pimelate semialdehyde as substrate | reversibility of the ω-transaminase activity: pimelate semialdehyde accepted, 7-aminoheptanoate synthesized [3]: accepted pimelate semialdehyde as substrate and synthesized 7-aminoheptanoate

More lines, main results first:

ω-transaminase activity for converting 7-aminoheptanol to 7-oxoheptanol (pyruvate to L-alanine) [1]: accepted 7-aminoheptanol as substrate | ω-transaminase acceptance of 7-oxoheptanol, forming 7-aminoheptanol [1]: accept 7-oxoheptanol as substrate | ω-transaminase activity for converting 7-aminoheptanoate to pimelate semialdehyde (pyruvate to L-alanine) [2]: accepted 7-aminoheptanote as substrate
B2: SEQ ID NO 10: Pseudomonas syringae ω-transaminase, Genbank Accession No. AAY39893.1 (protein, listed as Pseudomonas syringae)
chain: MSANNPQTLEWQALSSEHHLAPFSDYKQLKEKGPRIITRAEGVYLWDSEGNKILDGMSGLWCVAIGYGREELADAASKQMRELPYYNLFFQTAHPPVLELAKAISDIAPEGMNHVFFTGSGSEGNDTMLRMVRHYWALKGQPNKKTIISRVNGYHGSTVAGASLGGMTYMHEQGDLPIPGVVHIPQPYWFGEGGDMTPDEFGIWAAEQLEKKILELGVENVGAFIAEPIQGAGGVIVPPDSYWPKIKEILSRYDILFAADEVICGFGRTSEWFGSDFYGLRPDMMTIAKGLTSGYVPMGGLIVRDEIVAVLNEGGDFNHGFTYSGHPVAAAVALENIRILREEKIVERVRSETAPYLQKRLRELSDHPLVGEVRGVGLLGAIELVKDKTTRERYTDKGAGMICRTFCFDNGLIMRAVGDTMIIAPPLVISFAQIDELVEKARTCLDLTLAVLQG
ω-transaminase activity for converting pimelate semialdehyde to 7-aminoheptanoate (L-alanine to pyruvate) [3]: accepted pimelate semialdehyde as substrate | reversibility of the ω-transaminase activity: pimelate semialdehyde accepted, 7-aminoheptanoate synthesized [3]: accepted pimelate semialdehyde as substrate and synthesized 7-aminoheptanoate

ω-transaminase activity for converting 7-aminoheptanol to 7-oxoheptanol (pyruvate to L-alanine) [1]: accepted 7-aminoheptanol as substrate | ω-transaminase acceptance of 7-oxoheptanol, forming 7-aminoheptanol [1]: accept 7-oxoheptanol as substrate | ω-transaminase activity for converting 7-aminoheptanoate to pimelate semialdehyde (pyruvate to L-alanine) [2]: accepted 7-aminoheptanote as substrate
B3: SEQ ID NO 8: Chromobacterium violaceum ω-transaminase, Genbank Accession No. AAQ59697.1 (protein, listed as Chromobacterium violaceum)
chain: MQKQRTTSQWRELDAAHHLHPFTDTASLNQAGARVMTRGEGVYLWDSEGNKIIDGMAGLWCVNVGYGRKDFAEAARRQMEELPFYNTFFKTTHPAVVELSSLLAEVTPAGFDRVFYTNSGSESVDTMIRMVRRYWDVQGKPEKKTLIGRWNGYHGSTIGGASLGGMKYMHEQGDLPIPGMAHIEQPWWYKHGKDMTPDEFGVVAARWLEEKILEIGADKVAAFVGEPIQGAGGVIVPPATYWPEIERICRKYDVLLVADEVICGFGRTGEWFGHQHFGFQPDLFTAAKGLSSGYLPIGAVFVGKRVAEGLIAGGDFNHGFTYSGHPVCAAVAHANVAALRDEGIVQRVKDDIGPYMQKRWRETFSRFEHVDDVRGVGMVQAFTLVKNKAKRELFPDFGEIGTLCRDIFFRNNLIMRACGDHIVSAPPLVMTRAEVDEMLAVAERCLEEFEQTLKARGLA
reversibility of the ω-transaminase activity: pimelate semialdehyde accepted, 7-aminoheptanoate synthesized [3]: accepted pimelate semialdehyde as substrate and synthesized 7-aminoheptanoate
